{"source": "patent US20110263014", "proteins": {"B1": {"name": "recombinant active caspase-3 (protein)", "chain": "SGISLDNSYKMDYPEMGLCIIINNKNFHKSTGMTSRSGTDVDAANLRETFRNLKYEVRNKNDLTREEIVELMRDVSKEDHSKRSSFVCVLLSHGEEGIIFGTNGPVDLKKITNFFRGDRCRSLTGKPKLFIIQACRGTELDCGIETDSGVDDDMACHKIPVEADFLYAYSTAPGYYSWRNSKDGSWFIQSLCAMLKQYADKLEFMHILTRVNRKVATEFESFSFDATFHAKKQIPCIVSMLTKELYFYH"}}, "key": {"[1]": {"molecular_target": "in vitro-translated human Nanog (hNanog), Q9H9S0", "sequence (Q9H9S0 whole entry)": "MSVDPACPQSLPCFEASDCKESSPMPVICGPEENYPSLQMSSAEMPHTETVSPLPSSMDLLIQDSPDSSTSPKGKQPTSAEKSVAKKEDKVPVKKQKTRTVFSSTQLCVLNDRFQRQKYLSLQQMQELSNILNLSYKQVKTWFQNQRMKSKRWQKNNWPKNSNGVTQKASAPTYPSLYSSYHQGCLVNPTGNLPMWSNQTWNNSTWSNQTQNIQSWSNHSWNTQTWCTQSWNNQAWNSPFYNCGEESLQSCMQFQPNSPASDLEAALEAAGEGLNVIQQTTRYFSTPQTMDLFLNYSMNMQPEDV"}, "[2]": {"molecular_target": "Sox2"}, "[3]": {"molecular_target": "T1, mouse Nanog (mNanog), Q80Z64", "T1 chain": "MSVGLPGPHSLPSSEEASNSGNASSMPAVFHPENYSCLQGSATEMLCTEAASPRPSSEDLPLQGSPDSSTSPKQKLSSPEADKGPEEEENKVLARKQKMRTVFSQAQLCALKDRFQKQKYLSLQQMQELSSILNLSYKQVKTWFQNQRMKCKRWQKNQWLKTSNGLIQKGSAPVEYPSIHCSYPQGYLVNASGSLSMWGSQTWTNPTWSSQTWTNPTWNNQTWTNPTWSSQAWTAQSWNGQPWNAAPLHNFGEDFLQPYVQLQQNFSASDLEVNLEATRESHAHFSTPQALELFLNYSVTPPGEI"}, "[4]": {"molecular_target": "Oct4"}}, "data": [{"protein": "B1", "values": [{"measurement": "in vitro caspase-3 cleavage assay", "setting": "[1]", "result": "Caspase-3 cleaved human (h) Nanog in vitro"}, {"measurement": "in vitro caspase-3 cleavage assay", "setting": "[2]", "result": "remained uncleaved (data not shown)"}, {"measurement": "cleavage of immunoprecipitated mNanog by recombinant caspase", "setting": "[3]", "result": "Only caspase-9 effectively cleaved mNanog into a 27 kDa fragment"}, {"measurement": "in vitro caspase-3 cleavage assay", "setting": "[3]", "result": "very little or no cleavage of recombinant mNanog by caspase-3 was observed"}, {"measurement": "in vitro caspase-3 cleavage assay", "setting": "[4]", "result": "remained uncleaved (data not shown)"}]}]}
